The source of these data is PMC9107400.

One experiment deals with AR65Q (human) (UniProt P10275). Description: co-IP; cell-free ('in vitro pull-down'): FLAG-SMAD4 (TNT wheat germ) and GST-AR constructs (E. coli S30) in vitro translated, equal amounts mixed overnight at 4 °C, captured with anti-GST antibody on protein G Dynabeads, Western blot with anti-FLAG. On the technique in general: In western blotting, separated proteins are transferred to a membrane and probed.

In experiment [1] the target is N-terminal FLAG-tagged SMAD4 (UniProt Q13485). Description: co-IP; HEK293T cells transfected with FLAG-tagged SMAD4 (or its deletion constructs) and AR constructs, treated with DHT 10 nM and BMP7 50 ng/mL for 12 h; nuclear extracts incubated overnight at 4 °C with anti-FLAG or anti-AR antibody (IgG isotype as control) on protein G Dynabeads; Western blot for AR and SMAD4.

In the experiment with AR65Q (human), “FLAG-tagged SMAD4, in vitro translated (from UniProt Q13485 1-552) (natural protein)” displayed a binding compared to wild type of 70%. In experiment [1], “AR100Q (from UniProt P10275 1-920) (natural protein)” registered a binding compared to wild type of 50%.
